# What was measured:
# [1] = molecular target: soluble collagen type I (pepsin-digested, non-fibrillar, triple helical; BD Biosciences) (human) (UniProt P02452); test: SPR, saliva injected over immobilized collagen type I for 120 sec at 20 µl/min
# [2] = molecular target: soluble collagen type III (pepsin-digested, non-fibrillar; BD Biosciences) (human) (UniProt P02461); test: SPR, saliva injected over immobilized collagen type III for 120 sec at 20 µl/min
# [3] = molecular target: collagen-related peptide (GPO)10, GCO-(GPO)10-GCOG-NH2, cross-linked; test: SPR, Aegyptin over immobilized cross-linked (GPO)10, two-state model (text value; Table 4 prints 5.101 µM)
# [4] = molecular target: collagen-related peptide (GPO)10, GCO-(GPO)10-GCOG-NH2, cross-linked; test: SPR, Aegyptin over immobilized cross-linked (GPO)10 peptide, two-state model; Kd1
# [5] = molecular target: collagen-related peptide (GPO)10, GCO-(GPO)10-GCOG-NH2, cross-linked; test: SPR, Aegyptin over immobilized cross-linked (GPO)10 peptide, two-state model
# [6] = molecular target: collagen-related peptide (GPO)10, GCO-(GPO)10-GCOG-NH2, cross-linked; test: SPR, Aegyptin over immobilized cross-linked (GPO)10 peptide, two-state model; Ka1
# soluble collagen type I (pepsin-digested, non-fibrillar, triple helical; BD Biosciences) (human), sequence (P02452 179-1192 limits assumed, chain 1 of 2): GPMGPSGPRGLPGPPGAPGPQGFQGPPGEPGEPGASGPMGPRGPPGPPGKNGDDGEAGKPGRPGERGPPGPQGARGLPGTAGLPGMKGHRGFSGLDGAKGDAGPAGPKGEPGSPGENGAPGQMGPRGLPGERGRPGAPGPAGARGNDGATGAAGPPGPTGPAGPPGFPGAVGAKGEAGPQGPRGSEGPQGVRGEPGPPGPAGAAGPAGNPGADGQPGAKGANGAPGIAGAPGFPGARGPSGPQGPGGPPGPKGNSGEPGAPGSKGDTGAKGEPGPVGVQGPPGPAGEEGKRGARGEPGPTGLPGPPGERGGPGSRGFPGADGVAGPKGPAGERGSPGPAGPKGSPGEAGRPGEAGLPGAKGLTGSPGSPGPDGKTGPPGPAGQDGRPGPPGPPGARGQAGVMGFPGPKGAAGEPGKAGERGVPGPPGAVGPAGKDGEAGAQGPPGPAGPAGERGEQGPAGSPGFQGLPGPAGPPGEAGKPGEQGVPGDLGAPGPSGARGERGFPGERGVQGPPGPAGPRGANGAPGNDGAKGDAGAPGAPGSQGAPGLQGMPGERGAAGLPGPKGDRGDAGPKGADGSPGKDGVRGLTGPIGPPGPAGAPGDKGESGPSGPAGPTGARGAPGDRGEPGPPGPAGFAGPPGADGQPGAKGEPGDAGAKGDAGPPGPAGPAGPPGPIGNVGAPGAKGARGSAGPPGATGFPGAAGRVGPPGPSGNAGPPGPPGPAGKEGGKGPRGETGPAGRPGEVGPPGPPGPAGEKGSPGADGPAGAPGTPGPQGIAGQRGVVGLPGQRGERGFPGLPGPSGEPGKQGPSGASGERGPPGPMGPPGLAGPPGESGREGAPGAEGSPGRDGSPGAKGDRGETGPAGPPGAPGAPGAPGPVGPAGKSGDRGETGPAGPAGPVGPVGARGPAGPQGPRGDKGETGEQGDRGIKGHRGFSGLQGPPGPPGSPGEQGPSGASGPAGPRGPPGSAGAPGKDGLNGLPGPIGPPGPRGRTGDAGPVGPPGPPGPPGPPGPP
# soluble collagen type I (pepsin-digested, non-fibrillar, triple helical; BD Biosciences) (human), sequence (P08123 91-1104 limits assumed, chain 2 of 2, further chain): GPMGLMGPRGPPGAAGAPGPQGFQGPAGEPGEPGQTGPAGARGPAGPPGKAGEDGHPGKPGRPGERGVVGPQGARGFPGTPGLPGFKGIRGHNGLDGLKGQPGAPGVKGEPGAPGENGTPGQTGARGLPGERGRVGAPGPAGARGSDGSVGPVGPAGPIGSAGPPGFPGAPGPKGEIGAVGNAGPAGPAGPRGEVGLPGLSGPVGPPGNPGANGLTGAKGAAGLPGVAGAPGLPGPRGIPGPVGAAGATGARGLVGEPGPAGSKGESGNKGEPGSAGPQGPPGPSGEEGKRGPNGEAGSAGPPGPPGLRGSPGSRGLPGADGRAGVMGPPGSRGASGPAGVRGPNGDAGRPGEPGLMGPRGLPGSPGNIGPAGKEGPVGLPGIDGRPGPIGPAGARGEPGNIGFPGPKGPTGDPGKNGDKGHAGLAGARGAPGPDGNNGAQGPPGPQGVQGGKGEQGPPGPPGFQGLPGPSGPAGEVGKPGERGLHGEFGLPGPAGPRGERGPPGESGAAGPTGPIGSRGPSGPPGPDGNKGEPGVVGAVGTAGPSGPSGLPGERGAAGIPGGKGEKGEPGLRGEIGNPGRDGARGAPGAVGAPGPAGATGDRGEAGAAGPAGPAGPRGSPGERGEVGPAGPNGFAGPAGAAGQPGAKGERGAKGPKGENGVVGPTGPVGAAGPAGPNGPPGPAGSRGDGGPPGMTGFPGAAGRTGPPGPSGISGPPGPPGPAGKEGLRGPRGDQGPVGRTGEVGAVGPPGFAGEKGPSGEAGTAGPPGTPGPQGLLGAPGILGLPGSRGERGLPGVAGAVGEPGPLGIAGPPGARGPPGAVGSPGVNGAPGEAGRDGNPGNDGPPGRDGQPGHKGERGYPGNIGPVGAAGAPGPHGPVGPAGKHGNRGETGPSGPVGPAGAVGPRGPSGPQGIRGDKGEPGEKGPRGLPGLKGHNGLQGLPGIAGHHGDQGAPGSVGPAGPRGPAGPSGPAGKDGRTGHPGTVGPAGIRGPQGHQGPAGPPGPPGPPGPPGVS
# soluble collagen type III (pepsin-digested, non-fibrillar; BD Biosciences) (human), sequence (P02461 168-1196): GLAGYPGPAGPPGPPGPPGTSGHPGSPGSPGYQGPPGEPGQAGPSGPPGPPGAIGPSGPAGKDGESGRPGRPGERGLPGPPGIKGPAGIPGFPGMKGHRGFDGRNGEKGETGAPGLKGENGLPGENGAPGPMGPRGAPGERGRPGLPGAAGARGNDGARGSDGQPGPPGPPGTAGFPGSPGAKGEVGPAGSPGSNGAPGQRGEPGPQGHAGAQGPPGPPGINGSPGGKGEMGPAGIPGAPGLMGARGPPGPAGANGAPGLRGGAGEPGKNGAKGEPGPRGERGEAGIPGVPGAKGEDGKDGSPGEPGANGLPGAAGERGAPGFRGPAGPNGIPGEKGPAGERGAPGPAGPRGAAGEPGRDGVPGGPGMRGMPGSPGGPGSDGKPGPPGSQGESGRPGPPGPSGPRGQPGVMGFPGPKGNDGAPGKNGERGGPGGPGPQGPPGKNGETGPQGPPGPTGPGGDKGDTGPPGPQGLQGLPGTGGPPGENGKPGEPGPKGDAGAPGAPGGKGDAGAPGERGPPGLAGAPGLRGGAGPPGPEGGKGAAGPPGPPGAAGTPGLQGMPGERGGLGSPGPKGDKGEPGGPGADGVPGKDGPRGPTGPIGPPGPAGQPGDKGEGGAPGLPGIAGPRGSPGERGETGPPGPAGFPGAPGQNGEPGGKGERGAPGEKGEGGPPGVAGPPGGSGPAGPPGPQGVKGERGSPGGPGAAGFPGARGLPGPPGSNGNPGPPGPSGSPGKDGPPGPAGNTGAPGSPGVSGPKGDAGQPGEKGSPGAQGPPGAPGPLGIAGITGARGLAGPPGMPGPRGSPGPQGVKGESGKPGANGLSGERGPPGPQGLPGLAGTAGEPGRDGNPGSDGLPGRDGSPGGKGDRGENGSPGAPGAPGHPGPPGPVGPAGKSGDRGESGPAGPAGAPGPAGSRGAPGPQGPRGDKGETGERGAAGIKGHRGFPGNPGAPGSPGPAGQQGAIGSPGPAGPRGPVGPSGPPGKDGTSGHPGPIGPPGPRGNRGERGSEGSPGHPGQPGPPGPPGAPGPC
Substance,Response (RU) [1] [RU],Response (RU) [2] [RU],Kd [3] [µM],koff [4] [s⁻¹],Kd [5] [µM],Kd2 (two-state model) [5] [s⁻¹],second Ka of the two-state model [5] [M⁻¹ s⁻¹],kon [6] [M⁻¹ s⁻¹]
Ae. aegypti saliva (0.07 µg/ml),556,348,–,–,–,–,–,–
recombinant Aegyptin (from UniProt O01949 20-273),–,–,5.01,1.19,5.1,0.0289,0.00402,206000
